Measured values published in US20090285813A1.
Numbering of substitutions follows the chain as printed. Blank lines part the entries; values can stand above or below the binder they belong to.

Molecular target: human CD3 (human) (UniProt P07766)
Test: cell-based or functional assay

Sequence of human CD3 (human) (P07766 23-207): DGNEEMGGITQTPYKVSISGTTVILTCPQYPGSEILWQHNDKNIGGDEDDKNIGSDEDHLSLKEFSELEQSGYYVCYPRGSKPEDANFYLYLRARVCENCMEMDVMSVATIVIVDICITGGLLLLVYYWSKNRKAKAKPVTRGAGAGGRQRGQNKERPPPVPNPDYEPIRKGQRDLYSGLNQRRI

Apo-One Apoptosis Assay, 12.5 ng/ml: 649 | Apo-One Apoptosis Assay, 12.5 ng/ml, second block (ratio to Fc null): 1.3 | Apo-One Apoptosis Assay, 25 ng/ml: 854 | Apo-One Apoptosis Assay, 25 ng/ml, second block (ratio to Fc null): 1.2 | Apo-One Apoptosis Assay, 50 ng/ml: 1130 | Apo-One Apoptosis Assay, 50 ng/ml, second block (ratio to Fc null): 1
B1: anti-CD3 HuFR antibody 3 (heavy chain BD20611, light chain BD21132) (antibody, part only; not given: Heavy stretch before framework 4, V domains shown, part only)
VH, part: QVQLVESGAEVKKPGASVKVSCKASGYTFTRYTMHWVRQAPGKGLEWMGYINPSRGYTNYNQKFKDRLTISKDTSKNQVVLTMTNMDPVDTATYYCARYYDDHYCLDYVTVSSASTKGPS
VL: EIVLTQSPATLSLSPGERATLSCSASSSVSYMNWYQQKPGKAPKLLIYDTSKLASGVPSRFSGSGSGTEFTLTISSLQPDDFATYYCQQWSSNPFTFGQGTKVEIKFGQGTKVEIKR

Apo-One Apoptosis Assay, 12.5 ng/ml: 969 | Apo-One Apoptosis Assay, 12.5 ng/ml, second block (ratio to Fc null): 2 | Apo-One Apoptosis Assay, 25 ng/ml: 1630 | Apo-One Apoptosis Assay, 25 ng/ml, second block (ratio to Fc null): 2.2 | Apo-One Apoptosis Assay, 50 ng/ml: 2560 | Apo-One Apoptosis Assay, 50 ng/ml, second block (ratio to Fc null): 2.1
B2: anti-CD3 HuFR antibody 8 (heavy chain BD20611, light chain BD21137) (antibody, part only; not given: few VH framework 4 residues, V domains shown, part only)
VH, part: B1 VH, part
VL: DIQMTQSPSTLSASVGDRVTITCSASSSVSYMNWYQQKPGQPPKLLIYDTSKLASGVPSRFSGSGSGTDFTFTISSLQPEDIATYYCQQWSSNPFTFGQGTKVEIKFGQGTKVEIKR

Apo-One Apoptosis Assay, 12.5 ng/ml: 1280 | Apo-One Apoptosis Assay, 12.5 ng/ml, second block (ratio to Fc null): 2.6 | Apo-One Apoptosis Assay, 25 ng/ml: 2220 | Apo-One Apoptosis Assay, 25 ng/ml, second block (ratio to Fc null): 3.1 | Apo-One Apoptosis Assay, 50 ng/ml: 3500 | Apo-One Apoptosis Assay, 50 ng/ml, second block (ratio to Fc null): 2.9
B3: anti-CD3 HuFR antibody 6 (heavy chain BD20611, light chain BD21135) (antibody, part only; not given: Heavy stretch before framework 4, V domains shown, part only)
VH, part: B1 VH, part
VL: B1 VL with L4M, L13V, K41Q, K44R, S59D, E69D, P79A, D80E, F82V, T84V

Apo-One Apoptosis Assay, 12.5 ng/ml: 1160 | Apo-One Apoptosis Assay, 12.5 ng/ml, second block (ratio to Fc null): 2.4 | Apo-One Apoptosis Assay, 25 ng/ml: 1660 | Apo-One Apoptosis Assay, 25 ng/ml, second block (ratio to Fc null): 2.3 | Apo-One Apoptosis Assay, 50 ng/ml: 2160 | Apo-One Apoptosis Assay, 50 ng/ml, second block (ratio to Fc null): 1.8
B4: anti-CD3 HuFR antibody 5 (heavy chain BD20611, light chain BD21134) (antibody, part only; not given: Heavy stretch before framework 4, V domains shown, part only)
VH, part: B1 VH, part
VL: B1 VL with L4M, L13V, K41Q, A42P

Apo-One Apoptosis Assay, 12.5 ng/ml: 1390 | Apo-One Apoptosis Assay, 12.5 ng/ml, second block (ratio to Fc null): 2.8 | Apo-One Apoptosis Assay, 25 ng/ml: 2350 | Apo-One Apoptosis Assay, 25 ng/ml, second block (ratio to Fc null): 3.2 | Apo-One Apoptosis Assay, 50 ng/ml: 3300 | Apo-One Apoptosis Assay, 50 ng/ml, second block (ratio to Fc null): 2.8
B5: anti-CD3 HuFR antibody 4 (heavy chain BD20611, light chain BD21133) (antibody, part only; not given: Heavy stretch before framework 4, V domains shown, part only)
VH, part: B1 VH, part
VL: DIVMTQSPLSLPVTPGEPASISCSASSSVSYMNWYQQKPGQPPKLLIYDTSKLASGVPSRFSGSGSGTEFTLTISSLQPDDFATYYCQQWSSNPFTFGQGTKVEIKFGQGTKVEIKR

Apo-One Apoptosis Assay, 12.5 ng/ml: 797 | Apo-One Apoptosis Assay, 12.5 ng/ml, second block (ratio to Fc null): 1.6 | Apo-One Apoptosis Assay, 25 ng/ml: 1220 | Apo-One Apoptosis Assay, 25 ng/ml, second block (ratio to Fc null): 1.7 | Apo-One Apoptosis Assay, 50 ng/ml: 1750 | Apo-One Apoptosis Assay, 50 ng/ml, second block (ratio to Fc null): 1.5
B6: anti-CD3 HuFR antibody 1 (heavy chain BD20610, light chain BD21130) (antibody, part only; not given: Heavy stretch before framework 4, V domains shown, part only)
VH, part: QVQLVESGAEVKKPGASVKVSCKASGYTFTRYTMHWVRQAPGKGLEWMGYINPSRGYTNYNQKFKDRVTISVDTSKNQFSLKLSSVTAADTAVYYCARYYDDHYCLDYVTVSSASTKGPS
VL: DIQMTQSPSSLSASVGDRVTITCSASSSVSYMNWYQQKPGQPPKLLIYDTSKLASGVPDRFSGSGSGTDFTLKISRVEAEDVGVYYCQQWSSNPFTFGQGTKVEIKFGQGTKVEIKR

Apo-One Apoptosis Assay, 12.5 ng/ml: 2270 | Apo-One Apoptosis Assay, 12.5 ng/ml, second block (ratio to Fc null): 4.6 | Apo-One Apoptosis Assay, 25 ng/ml: 3480 | Apo-One Apoptosis Assay, 25 ng/ml, second block (ratio to Fc null): 4.8 | Apo-One Apoptosis Assay, 50 ng/ml: 4740 | Apo-One Apoptosis Assay, 50 ng/ml, second block (ratio to Fc null): 4
B7: anti-CD3 HuFR antibody 7 (heavy chain BD20611, light chain BD21136) (antibody, part only; not given: Heavy stretch before framework 4, V domains shown, part only)
VH, part: B1 VH, part
VL: B6 VL with S10T, Q41K, P42A, V57I, K73T, V77L, A79P, V82F, G83A

Apo-One Apoptosis Assay, 12.5 ng/ml: 885 | Apo-One Apoptosis Assay, 12.5 ng/ml, second block (ratio to Fc null): 1.8 | Apo-One Apoptosis Assay, 25 ng/ml: 1380 | Apo-One Apoptosis Assay, 25 ng/ml, second block (ratio to Fc null): 1.9 | Apo-One Apoptosis Assay, 50 ng/ml: 2040 | Apo-One Apoptosis Assay, 50 ng/ml, second block (ratio to Fc null): 1.7
B8: anti-CD3 HuFR antibody 9 (heavy chain BD20613, light chain BD21138) (antibody, part only; not given: few VH framework 4 residues, V domains shown, part only)
VH, part: QVQLQESGPGLVKPSETLSLTCAVSGYTFTRYTMHWVRQAPGKGLEWVGYINPSRGYTNYNQKFKDRFTISRDDSKNTAYLQMNSLKTEDTAVYYCTRYYDDHYCLDYVTVSSASTKGPS
VL: B6 VL with S10T, Q41K, P42A

Apo-One Apoptosis Assay, 12.5 ng/ml: 854 | Apo-One Apoptosis Assay, 12.5 ng/ml, second block (ratio to Fc null): 1.7 | Apo-One Apoptosis Assay, 25 ng/ml: 1440 | Apo-One Apoptosis Assay, 25 ng/ml, second block (ratio to Fc null): 2 | Apo-One Apoptosis Assay, 50 ng/ml: 2160 | Apo-One Apoptosis Assay, 50 ng/ml, second block (ratio to Fc null): 1.8
B9: anti-CD3 HuFR antibody 2 (heavy chain BD20613, light chain BD21131) (antibody, part only; not given: few VH framework 4 residues, V domains shown, part only)
VH, part: B8 VH, part
VL: B6 VL with S10T, P42A, K44R
